Reference: patent US20240409586A1, “CYCLIC POLYPEPTIDE CARRIER FOR EFFICIENT DELIVERY OF NUCLEIC ACID, AND VARIANTS THEREOF” (SUZHOU HEALIRNA BIOTECHNOLOGY CO., LTD., priority 2022, published 2024)
Bridge positions count the residues as written; N and C are the ends. Ends that are not written are not given here.

Legend:
[1] = Dynamic light scattering of particles formed by cyclic peptide samples with siRNA; assay type: physicochemical; settings: cyclic peptide/RNA mass ratio 4:1, DLS; for Zeta potential: in mV (unit assumed)
Protocol: Utilizing the Malvern Zetasizer Nano ZS (Malvern Nano Particle Sizing Instrument), the particle size (Size), polydispersity index (PDI), and zeta potential (Zeta P) of the particles formed after samples 1-9 encapsulate siRNA at a cyclic peptide/RNA mass ratio of 4:1 were measured by dynamic light scattering (DLS).

siRNA = assay: Agarose gel electrophoresis of cyclic peptide/siRNA formulations (encapsulation); assay type: physicochemical; settings: mass ratio of 4:1 of cyclic peptide/siRNA
Protocol: a. Weigh out 0.5 g of agarose powder and pour it into a conical flask, then add 50 mL of 1×TAE electrophoresis buffer into the flask. Dissolve it completely under heating conditions.
b. After cooling to 65° C., add 5 μL of ethidium bromide, swiftly pour into the gel casting tray, insert the comb, and let it stand at room temperature for 0.5-1 hour until the gel solidifies.
c. Next, remove the comb, pour 1×TAE electrophoresis buffer into the well to submerge the gel.
d. Prepare nine formulations of cyclic peptides with siRNA, using samples 1-9 at mass ratios of 1-4 of sample/siRNA. Mix 2 μL of 6× loading dye with 10 μL of samples, load 10 μL into the wells, and concurrently load 10 μL of DNA Marker and bare siRNA into the wells as controls.
e. Subsequently, run the electrophoresis at […] for 45 minutes, turn off the power supply, remove the gel, and observe and record the electrophoresis image with a UV gel imaging system.

[2] = Dynamic light scattering of cyclic peptide/siRNA and cyclic peptide/lipid/siRNA formulations; assay type: physicochemical; settings: cyclic peptide/RNA 3:1; before and after binding with lipids (DSPC/cholesterol/RNA 2.4/3.1/1), DLS
Text: Sample 5 and 8 were selected and initially mixed in a microfluidic channel at a mass ratio of 3:1 cyclic peptide/RNA to form a particle solution, which was then left to stabilize.
The mass ratio of distearoylphosphatidylcholine (DSPC)/cholesterol/RNA was set at 2.4/3.1/1. DSPC and cholesterol were weighed and dissolved in a certain volume of ethanol solution.
The cyclic peptide/siRNA aqueous solution was mixed with the lipid ethanol solution through a microfluidic channel to form composite particles again, where the final concentration of ethanol was 25%. Dialysis was used to remove the ethanol, and the final lipid/cyclic peptide/nucleic acid composite particles were collected.
Using the Malvern Zetasizer Nano ZS, the particle size and polydispersity index (PDI) before and after binding with lipids (5-L and 8-L) were measured for sample 5 and 8 using dynamic light scattering.

293T cells = assay: EGFP mRNA transfection, fluorescence microscopy; assay type: cell-based, human; settings: 24 hours, S5/mRNA mass ratios 10:1, 12.5:1, 15:1
Text: 1. Sample preparation: Sample 5 (S5) was selected and mixed in a microfluidic channel to form a particle solution at different cyclic peptide/mRNA mass ratios (10:1, 12.5:1, 15:1), and then left to stabilize.
2. Control formulation: A lipid nanoparticle (LNP) control at a ratio of 4-(N,N-dimethylamino) butyric acid (dilinoleyl) methyl ester/DSPC/cholesterol/1,2-dimyristoyl-rac-glycerol-3-methoxypolyethylene glycol 2000=50:10:38.5:1.5 was used and mRNA was encapsulated according to the method described in Embodiment 3.
3. Cell plating: 293T cells were plated in a 24-well plate with 9 wells per cell type, each well containing 1 ml of medium and 1×10^5 cells, grown for 12 hours until adherence.
4. Solution preparation: PBS (control); for each group in 3 ml serum-free medium, 3×20 μl=60 μl of prepared sample was added and mixed well, 1 ml per well. Transfection group (lipo2000); in 1.2 ml serum-free medium, add 30 μl of mRNA at a concentration of 0.1 μg/μl and 3 μl×3=9 μl of lipo2000, mix well, let stand for 5-10 min. Cells were washed, transfection reagent was added at 400 μl per well, topped up with 600 μl DMEM complete medium. […]
5. Photo capture: Fluorescence photo: exposure time 600 ms, exposure magnification 14, exposure brightness +1; white light photo: exposure time 10 ms, exposure magnification 1, exposure brightness +1.

Substance | Polydispersity index [1] | Size [1] | Zeta potential [1] | encapsulation of siRNA (agarose gel electrophoresis) (siRNA) | PDI [2] | Size [2] | green fluorescent protein expression intensity versus control LNP group (293T cells)
Arg-Asp-Gly-Lys-Val-Gln-Leu-Lys-Val-Gln-Leu-Cys-Gln-Lys-Lys-Lys-Gln-Lys-Lys-Lys-Gln-Lys-Lys-Lys-Gln-Lys-Lys-Lys-Lys-Lys-Gln-Cys-Leu-Gln-Val-Lys-Leu-Gln-Val-Lys-Gly-Asp-Arg (RDGKVQLKVQLCQKKKQKKKQKKKQKKKKKQCLQVKLQVKGDR; disulfide 12-32 (inferred)) [Sample 9] | 0.169 | 111.3 nm | 23.0 | encapsulate siRNA effectively | – | – | –
Lys-Lys-Leu-Lys-Lys-Leu-Lys-Lys-Leu-Lys-Lys-Leu-Cys-Ala-Phe-Lys-Ala-Phe-Lys-Ala-Phe-Lys-Ala-Phe-Lys-Phe-Ala-Cys (KKLKKLKKLKKLCAFKAFKAFKAFKFAC; disulfide 13-28 (inferred)) [Sample 4] | 0.542 | 264.5 nm | 18.6 | poor encapsulation effects | – | – | –
Lys-Lys-Leu-Lys-Lys-Leu-Cys-Lys-Lys-Lys-Lys-Lys-Lys-Lys-Lys-Lys-Lys-Lys-Lys-Lys-Lys-Cys-Leu-Lys-Lys-Leu-Lys-Lys (KKLKKLCKKKKKKKKKKKKKKCLKKLKK; disulfide 7-22 (inferred)) [Sample 3] | 0.065 | 299.1 nm | 21.3 | – | – | – | –
Lys-Ala-Met-Leu-Lys-Ala-Met-Leu-Lys-Ala-Met-Leu-Cys-Lys-Lys-Lys-Lys-Lys-Lys-Lys-Lys-Lys-Lys-Lys-Lys-Lys-Lys-Lys-Cys-Leu-Met-Ala-Lys-Leu-Met-Ala-Lys-Leu-Met-Ala-Lys (KAMLKAMLKAMLCKKKKKKKKKKKKKKKCLMAKLMAKLMAK; disulfide 13-29 (inferred)) [Sample 7] | 0.139 | 145.1 nm | 26.3 | encapsulate siRNA effectively | – | – | –
KKMLKKMLCQKKKKKQCLMKKLMKK (cysteine pairing not given here) [Sample 2] | 0.326 | 211.9 nm | 34.1 | – | – | – | –
Ala-Ala-Leu-Ala-Ala-Leu-Ala-Ala-Leu-Cys-Lys-Lys-Lys-Lys-Lys-Cys-Leu-Ala-Ala-Leu-Ala-Ala-Leu-Ala-Ala (AALAALAALCKKKKKCLAALAALAA; disulfide 10-16 (inferred)) [Sample 1] | 0.254 | 159.6 nm | 7.09 | – | – | – | –
Lys-Gln-Val-Leu-Lys-Gln-Val-Leu-Cys-Gln-Lys-Lys-Lys-Gln-Lys-Lys-Lys-Gln-Lys-Lys-Lys-Gln-Lys-Lys-Lys-Lys-Lys-Gln-Cys-Leu-Val-Gln-Lys-Leu-Val-Gln-Lys (KQVLKQVLCQKKKQKKKQKKKQKKKKKQCLVQKLVQK; disulfide 9-29 (inferred)) [Sample 6] | 0.355 | 32.58 nm | 21.2 | – | – | – | –
Arg-Asp-Gly-Lys-Lys-Lys-Leu-Lys-Lys-Lys-Leu-Cys-Gln-Leu-Ile-Lys-Gln-Leu-Ile-Lys-Gln-Leu-Ile-Lys-Gln-Leu-Ile-Lys-Ile-Leu-Gln-Cys-Leu-Lys-Lys-Lys-Leu-Lys-Lys-Lys-Gly-Asp-Arg (RDGKKKLKKKLCQLIKQLIKQLIKQLIKILQCLKKKLKKKGDR; disulfide 12-32 (inferred)) [Sample 8] | 0.143 | 29.92 nm | 16.5 | encapsulate siRNA effectively | 0.15 | 31.85 nm | –
Lys-Leu-Leu-Lys-Leu-Leu-Lys-Leu-Leu-Lys-Leu-Leu-Cys-Lys-Lys-Lys-Lys-Lys-Cys-Leu-Leu-Lys-Leu-Leu-Lys-Leu-Leu-Lys-Leu-Leu-Lys (KLLKLLKLLKLLCKKKKKCLLKLLKLLKLLK; disulfide 13-19 (inferred)) [Sample 5] | 0.133 | 81.02 nm | – | encapsulate siRNA effectively | 0.176 | 60.17 nm | more pronounced green fluorescent protein compared to the control LNP group
